# Data reported in article PMC12704761, “RAD51AP1 is a versatile RAD51 modulator” (Proceedings of the National Academy of Sciences of the …, 2025).
# B1: RAD51AP1 (RAD51 associated protein 1), full-length wild type [not stated] / RAD51 recombinase [not stated] (parent complex)
# chain 1: MVRPVRHKKPVNYSQFDHSDSDDDFVSATVPLNKKSRTAPKELKQDKPKPNLNNLRKEEIPVQEKTPKKRLPEGTFSIPASAVPCTKMALDDKLYQRDLEVALALSVKELPTVTTNVQNSQDKSIEKHGSSKIETMNKSPHISNCSVASDYLDLDKITVEDDVGGVQGKRKAASKAAAQQRKILLEGSDGDSANDTEPDFAPGEDSEDDSDFCESEDNDEDFSMRKSKVKEIKKKEVKVKSPVEKKEKKSKSKCNALVTSVDSAPAAVKSESQSLPKKVSLSSDTTRKPLEIRSPSAESKKPKWVPPAASGGSRSSSSPLVVVSVKSPNQSLRLGLSRLARVKPLHPNATST
# chain 2: MAMQMQLEANADTSVEEESFGPQPISRLEQCGINANDVKKLEEAGFHTVEAVAYAPKKELINIKGISEAKADKILAEAAKLVPMGFTTATEFHQRRSEIIQITTGSKELDKLLQGGIETGSITEMFGEFRTGKTQICHTLAVTCQLPIDRGGGEGKAMYIDTEGTFRPERLLAVAERYGLSGSDVLDNVAYARAFNTDHQTQLLYQASAMMVESRYALLIVDSATALYRTDYSGRGELSARQMHLARFLRMLLRLADEFGVAVVITNQVVAQVDGAAMFAADPKKPIGGNIIAHASTTRLYLRKGRGETRICKIYDSPCLPEAEAMFAINADGVGDAKD
# Variants of: B1
# Experiment: BLI; RAD51 about 2.5 µM (highest point, read from the x axis); read off a plot
row,response,Variant
1,~0.005 nm,"chain 1 R333A, chain 1 L334A, chain 1 L336A"
